Results on four molecules are retold here after patent publication US20250101107A1.

In this assay the target is human CD8 on human T cells (human) (UniProt P01732). Kind of assay: cell-based or functional assay.
Sequence of human CD8 on human T cells (human) (P01732 22-235, chain 1 of 2): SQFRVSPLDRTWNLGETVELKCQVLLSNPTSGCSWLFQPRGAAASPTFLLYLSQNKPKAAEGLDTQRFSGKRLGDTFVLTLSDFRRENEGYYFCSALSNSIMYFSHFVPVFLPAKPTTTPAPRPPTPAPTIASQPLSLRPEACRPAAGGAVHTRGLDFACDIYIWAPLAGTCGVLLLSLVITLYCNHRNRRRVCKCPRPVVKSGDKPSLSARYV
Sequence of human CD8 on human T cells (human) (P10966 22-210, chain 2 of 2, further chain): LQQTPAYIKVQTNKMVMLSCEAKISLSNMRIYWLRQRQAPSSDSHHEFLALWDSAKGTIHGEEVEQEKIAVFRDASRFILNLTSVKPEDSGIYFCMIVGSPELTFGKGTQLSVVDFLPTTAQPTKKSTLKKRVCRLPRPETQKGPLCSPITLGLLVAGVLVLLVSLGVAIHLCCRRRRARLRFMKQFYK

B1: 03A01-Fab-IL12 (LC) (protein, from a related filing, not shown: a dimerising Fc or GST)
VH: DVQFQESGPGLVKPSQSLSLTCTVTGYSITSDFAWNWIRQFPGNELEWMGYISYSGDTNYNPSLRSRISITRDTSKNQFFLQLDSVTTEDTATYYCTIRGYYTDSAFVFWGQGTLVTVSA
VL: DIQMTQSSSYLSVSLGGRVTITCKASDHINNWLAWYQQKPGNAPRLLISGATSLETGVPSRFTGSGSGLDYTLSITSLQTEDVATYYCQQYWNSPFTFGSGTKLEIK
With B1, the EC50 for stimulation of pSTAT4 signaling, CD8+ T cells in pre-activated human PBMCs turned out to be 11.1 pM.

B2: 03A01-Fab-Fc-IL12 (LC) (protein, from a related filing, not shown: a dimerising Fc or GST)
VH: B1 VH
VL: B1 VL
For the molecule B2, the EC50 for stimulation of pSTAT4 signaling, CD8+ T cells in pre-activated human PBMCs is 13.4 pM.

B3: 02A01-Fab-IL12 (LC) (protein, from a related filing, not shown: a dimerising Fc or GST)
VH: EVQLQQSGPELVKPGASLKISCKASGYTFTDFTMHWVKQSHGKSLEWIGLVNPNNGGNIYNQNFKGKATLTVDTSSSTAYMELRSLTSEDSSVYYCGRVPLYTSHGMDYWGQGTSVTVSS
VL: DIVLTQSPAFLAVSLGQRATISCRASESVDSYDINSMHWYQQKPGQPPKLLIYRASHLQSGIPARFSGSGSRTDFTLTINFVEADDVATYYCQQSNEDPLTFGAGTKLELK
In turn, B3 came in with an EC50 for stimulation of pSTAT4 signaling, CD8+ T cells in pre-activated human PBMCs of 1.74 pM.

B4: 02A01-Fab-Fc-IL12 (LC) (protein, from a related filing, not shown: a dimerising Fc or GST)
VH: B3 VH
VL: B3 VL
The molecule B4 displayed an EC50 for stimulation of pSTAT4 signaling, CD8+ T cells in pre-activated human PBMCs of 2.11 pM.
